Where no end group is shown, it is not given here. The star is where a group is joined. Biotin = O=C1N[C@H]2[C@H](CS[C@H]2CCCCC(=O)*)N1
Biological target: human vitamin D nuclear receptor ligand-binding domain, hexahistidine-tagged (6xHis-VDR-LBD) (human)
Assay: AlphaScreen or HTRF; 100 nM 6xHis-VDR-LBD on Ni2+-chelate acceptor beads, 20 nM biotinylated TIF2-3 peptide on streptavidin donor beads; increasing concentrations of 1α,25(OH)2D3 or 1α,25(OH)2-3-epi-D3 (1% DMSO); 50 mM MOPS pH 7.4, 50 mM NaF, 50 mM CHAPS, 100 µg/ml BSA

- EC50 of the ligand 1α,25(OH)2-3-epi-D3 for induced recruitment of the peptide: 2.5 nM
- EC50 of the ligand 1α,25(OH)2D3 for induced recruitment of the peptide: 1.2 nM
Binder: Biotin-QEPVSPKKKENALLRYLLDKDDTKD [human TIF2-3 biotinylated peptide (TIF2 coactivator peptide bearing the 3rd LXXLL motif)]
